Assay results taken from paper PMC7104407, “DBC1, p300, HDAC3, and Siah1 coordinately regulate ELL stability and function for expression of its target genes” (Proceedings of the National Academy of Sciences of the …, 2020).

Molecular target: T1, GST–ELL (human, UniProt P55199 1-621)
T1 construct: ELL (ELL1), human elongation factor; also called purified recombinant GST–ELL; source: bacterial expression system, purified
Assay: pull-down; in vitro direct interaction assay with purified GST–ELL or GST and purified HDAC3
Conditions: both partners purified

B1: HDAC3, purified (enzyme, human, UniProt O15379 1-428, looked up)
chain: MAKTVAYFYDPDVGNFHYGAGHPMKPHRLALTHSLVLHYGLYKKMIVFKPYQASQHDMCRFHSEDYIDFLQRVSPTNMQGFTKSLNAFNVGDDCPVFPGLFEFCSRYTGASLQGATQLNNKICDIAINWAGGLHHAKKFEASGFCYVNDIVIGILELLKYHPRVLYIDIDIHHGDGVQEAFYLTDRVMTVSFHKYGNYFFPGTGDMYEVGAESGRYYCLNVPLRDGIDDQSYKHLFQPVINQVVDFYQPTCIVLQCGADSLGCDRLGCFNLSIRGHGECVEYVKSFNIPLLVLGGGGYTVRNVARCWTYETSLLVEEAISEELPYSEYFEYFAPDFTLHPDVSTRIENQNSRQYLDQIRQTIFENLKMLNHAPSVQIHDVPADLLTYDRTDEADAEERGPEENYSRPEAPNEFYDGDHDNDKESDVEI
notes: histone deacetylase 3, human; also called purified HDAC3; source: overexpressed in mammalian 293T cells, purified (high salt-based purification method)
B1: binds.
